Measurements from PMC3176816, “Characterization and Regulation of the Osmolyte Betaine Synthesizing Enzymes GSMT and SDMT from Halophilic Methanogen Methanohalophilus portucalensis” (PLoS ONE, 2011).

Legend:
MpSDMT = target: T1, MpSDMT (Methanohalophilus portucalensis, UniProt F6KV62); assay: radiometric acid-washed charcoal methyltransferase assay; format: biochemical; settings: read-out: I50 AdoHcy
T1 construct: gene SAMN06264941_0526; full length, 278 residues, 30,690 Da calculated (38 kD on SDS-PAGE)
T1 sequence (F6KV62 1-278): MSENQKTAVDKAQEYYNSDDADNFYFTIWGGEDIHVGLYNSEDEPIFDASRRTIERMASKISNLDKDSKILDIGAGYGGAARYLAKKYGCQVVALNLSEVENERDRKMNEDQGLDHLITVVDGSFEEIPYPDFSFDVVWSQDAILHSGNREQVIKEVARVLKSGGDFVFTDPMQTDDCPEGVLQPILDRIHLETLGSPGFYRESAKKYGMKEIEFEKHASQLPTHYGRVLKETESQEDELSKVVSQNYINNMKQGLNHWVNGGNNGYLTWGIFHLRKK
Text: radiometric acid-washed charcoal methyltransferase assay on MpSDMT

MpGSMT = target: T2, MpGSMT (Methanohalophilus portucalensis, UniProt F6KV61); assay: as above; format: biochemical
T2 construct: gene gsmt; full length, 263 residues, 29,040 Da calculated (35 kD on SDS-PAGE)
T2 sequence (F6KV61 1-263): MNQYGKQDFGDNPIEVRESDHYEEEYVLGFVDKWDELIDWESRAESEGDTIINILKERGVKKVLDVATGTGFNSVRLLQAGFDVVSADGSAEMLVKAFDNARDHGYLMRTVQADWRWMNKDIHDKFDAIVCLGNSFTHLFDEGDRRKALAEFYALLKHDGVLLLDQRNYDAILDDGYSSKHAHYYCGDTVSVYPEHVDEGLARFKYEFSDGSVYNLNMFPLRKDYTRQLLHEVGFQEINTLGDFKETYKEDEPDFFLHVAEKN
Text: radiometric acid-washed charcoal methyltransferase assay on MpGSMT

purified protein = substrate: C[S+](CC[C@H](N)C(=O)O)C[C@H]1O[C@@H](n2cnc3c(N)ncnc32)[C@H](O)[C@@H]1O; assay: purified protein; settings: TES pH 7.3, 37 °C, labelled compound
[1] = target: the molecule itself; assay: AUC; sedimentation velocity, 0.70 mg/ml MpGSMT in 0.1 M TES buffer (pH 7.3) with 0 to 2.0 M KCl, 20°C, 42,000 rpm, SEDFIT 9.4c; monomer to dimer
[2] = substrate: CN(C)CC(=O)O; assay: radiometric acid-washed charcoal methyltransferase assay; format: biochemical, Methanohalophilus portucalensis; settings: DMT activity, co-substrate AdoMet, TES pH 7.3, 37 °C (text b54 prints a different Km, equal to that of the native enzyme in the table)
[3] = substrate: CNCC(=O)O; assay: as above; format: biochemical, Methanohalophilus portucalensis; settings: SMT activity, co-substrate AdoMet, TES pH 7.3, 37 °C (text b54 prints a different Km, equal to that of the native enzyme in the table)

## Nc1ncnc2c1ncn2[C@@H]1O[C@H](CSCC[C@H](N)C(=O)O)[C@@H](O)[C@H]1O [AdoHcy]
MpSDMT
  IC50: 150 µM
MpGSMT; read-out: I50 AdoHcy
  IC50: 70 µM

## C[N+](C)(C)CC(=O)[O-] [betaine]
MpGSMT; read-out: Relative activity (%) / Betaine / 1 M
  activity at 1 M: 30%

B1: Methanohalophilus portucalensis glycine sarcosine methyltransferase (recombinant MpGSMT) (enzyme, UniProt F6KV61 1-263, looked up)
chain: MNQYGKQDFGDNPIEVRESDHYEEEYVLGFVDKWDELIDWESRAESEGDTIINILKERGVKKVLDVATGTGFNSVRLLQAGFDVVSADGSAEMLVKAFDNARDHGYLMRTVQADWRWMNKDIHDKFDAIVCLGNSFTHLFDEGDRRKALAEFYALLKHDGVLLLDQRNYDAILDDGYSSKHAHYYCGDTVSVYPEHVDEGLARFKYEFSDGSVYNLNMFPLRKDYTRQLLHEVGFQEINTLGDFKETYKEDEPDFFLHVAEKN
notes: glycine sarcosine methyltransferase (GSMT) of Methanohalophilus portucalensis strain FDF1T; complete Mpgsmt gene, 792 bp, 263 amino acids, GenBank HQ634197; The tag is inferred from the vector and the Ni Sepharose purification; source: E. coli BL21(DE3)RIL, pET28a, purified (Ni Sepharose 6 Fast Flow)
Purified protein; GMT activity, methyl acceptor glycine
  Km: 8.26 mM
[1]
  stoichiometry N: 2

B2: MpSDMT (Methanohalophilus portucalensis FDF-1) (protein)
chain: MSENQKTAVDKAQEYYNSDDADNFYFTIWGGEDIHVGLYNSEDEPIFDASRRTIERMASKISNLDKDSKILDIGAGYGGAARYLAKKYGCQVVALNLSEVENERDRKMNEDQGLDHLITVVDGSFEEIPYPDFSFDVVWSQDAILHSGNREQVIKEVARVLKSGGDFVFTDPMQTDDCPEGVLQPILDRIHLETLGSPGFYRESAKKYGMKEIEFEKHASQLPTHYGRVLKETESQEDELSKVVSQNYINNMKQGLNHWVNGGNNGYLTWGIFHLRKK
notes: full length, 278 residues, 30,690 Da calculated (38 kD on SDS-PAGE)
Purified protein; SMT activity, methyl acceptor sarcosine
  Km: 0.50 mM
[2]
  Km: 0.66 mM
[3]
  Km: 0.66 mM
